Laboratory results published in the supplement of paper PMC9233669.
This sample holds only a part of the variants without activity.

Experiments:
biotinyl-Met-oxazolone = experiment: self-aminoacylation, catalytic enhancement (BMO) (fold over background); higher = more active; k-Seq, kA / k0A0; sequences stand for … in GGGAAUGGAUCCACAUCUACGAAUUC…UUCACUGCAGACUUGACGAAGCUG
Outline: (§1)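 Mutagenized RNA pools (0.43 μM; 21-nt variable region) were treated with 2–1250 μM of each biotinyl-aminoacyl-oxazolone. Conditions were 50 μL HEPES/NaCl/KCl/MgCl2/CaCl2 buffer, 5% acetonitrile, pH 6.9–7.0, room temperature, 90 minutes. Catalytic enhancement, the median kA relative to the uncatalyzed rate, was derived from streptavidin capture, qPCR and Illumina sequencing.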

biotinyl-Ile-oxazolone = experiment: self-aminoacylation, catalytic enhancement (BIO) (fold over background); higher = more active; k-Seq, kA / k0A0; sequences stand for … in GGGAAUGGAUCCACAUCUACGAAUUC…UUCACUGCAGACUUGACGAAGCUG
Outline: as §1

biotinyl-Phe-oxazolone = experiment: self-aminoacylation, catalytic enhancement (BFO) (fold over background); higher = more active; k-Seq, kA / k0A0; sequences stand for … in GGGAAUGGAUCCACAUCUACGAAUUC…UUCACUGCAGACUUGACGAAGCUG
Outline: as §1

biotinyl-Leu-oxazolone = experiment: self-aminoacylation, catalytic enhancement (BLO) (fold over background); higher = more active; k-Seq, kA / k0A0; sequences stand for … in GGGAAUGGAUCCACAUCUACGAAUUC…UUCACUGCAGACUUGACGAAGCUG
Outline: as §1

biotinyl-Trp-oxazolone = experiment: self-aminoacylation, catalytic enhancement (BWO) (fold over background); higher = more active; k-Seq, kA / k0A0; sequences stand for … in GGGAAUGGAUCCACAUCUACGAAUUC…UUCACUGCAGACUUGACGAAGCUG
Outline: as §1

biotinyl-Val-oxazolone = experiment: self-aminoacylation, catalytic enhancement (BVO) (fold over background); higher = more active; k-Seq, kA / k0A0; sequences stand for … in GGGAAUGGAUCCACAUCUACGAAUUC…UUCACUGCAGACUUGACGAAGCUG
Outline: as §1

AUUCACAUAUGUCAUCGGGUG [Fam2.2 aminoacylation ribozyme variant]
self-aminoacylation (biotinyl-Met-oxazolone): 7.09
self-aminoacylation (biotinyl-Ile-oxazolone): 4.44
self-aminoacylation (biotinyl-Phe-oxazolone): 52.5
self-aminoacylation (biotinyl-Leu-oxazolone): 9.08
self-aminoacylation (biotinyl-Trp-oxazolone): 7.3
self-aminoacylation (biotinyl-Val-oxazolone): 4.21

CCAGACUUCAAGCAAUCUGUC [Fam1B.1 aminoacylation ribozyme variant]
self-aminoacylation (biotinyl-Met-oxazolone): 0.444
self-aminoacylation (biotinyl-Ile-oxazolone): 0.467
self-aminoacylation (biotinyl-Phe-oxazolone): 0.591
self-aminoacylation (biotinyl-Leu-oxazolone): 0.45
self-aminoacylation (biotinyl-Trp-oxazolone): 0.309
self-aminoacylation (biotinyl-Val-oxazolone): 0.576

AUUCACCUAGGUCAUUGGGUC [Fam2.2 aminoacylation ribozyme variant]
self-aminoacylation (biotinyl-Met-oxazolone): 0.808
self-aminoacylation (biotinyl-Ile-oxazolone): 0.922
self-aminoacylation (biotinyl-Phe-oxazolone): 1.09
self-aminoacylation (biotinyl-Leu-oxazolone): 0.89
self-aminoacylation (biotinyl-Trp-oxazolone): 0.734
self-aminoacylation (biotinyl-Val-oxazolone): 0.867

AUUGUCCUAGGUCAUCGGGUG [Fam2.2 aminoacylation ribozyme variant]
self-aminoacylation (biotinyl-Met-oxazolone): 30.2
self-aminoacylation (biotinyl-Ile-oxazolone): 14.2
self-aminoacylation (biotinyl-Phe-oxazolone): 200
self-aminoacylation (biotinyl-Leu-oxazolone): 39.1
self-aminoacylation (biotinyl-Trp-oxazolone): 27.1
self-aminoacylation (biotinyl-Val-oxazolone): 13.6

AUUCGCCUAGGUCAUCGUGUG [Fam2.2 aminoacylation ribozyme variant]
self-aminoacylation (biotinyl-Met-oxazolone): 1.45
self-aminoacylation (biotinyl-Ile-oxazolone): 1.04
self-aminoacylation (biotinyl-Phe-oxazolone): 3.31
self-aminoacylation (biotinyl-Leu-oxazolone): 1.35
self-aminoacylation (biotinyl-Trp-oxazolone): 0.823
self-aminoacylation (biotinyl-Val-oxazolone): 1.05

CCACACUUCAUACAAUCGGUC [Fam1B.1 aminoacylation ribozyme variant]
self-aminoacylation (biotinyl-Met-oxazolone): 0.608
self-aminoacylation (biotinyl-Ile-oxazolone): 0.618
self-aminoacylation (biotinyl-Phe-oxazolone): 0.729
self-aminoacylation (biotinyl-Leu-oxazolone): 0.703
self-aminoacylation (biotinyl-Trp-oxazolone): 0.726
self-aminoacylation (biotinyl-Val-oxazolone): 0.744

CCACACUACAAGCAAUCGUUC [Fam1B.1 aminoacylation ribozyme variant]
self-aminoacylation (biotinyl-Met-oxazolone): 0.548
self-aminoacylation (biotinyl-Ile-oxazolone): 0.643
self-aminoacylation (biotinyl-Phe-oxazolone): 0.644
self-aminoacylation (biotinyl-Leu-oxazolone): 0.54
self-aminoacylation (biotinyl-Trp-oxazolone): 0.468
self-aminoacylation (biotinyl-Val-oxazolone): 0.679

CCACACUUCACGCGAUCGGUC [Fam1B.1 aminoacylation ribozyme variant]
self-aminoacylation (biotinyl-Met-oxazolone): 1.48
self-aminoacylation (biotinyl-Ile-oxazolone): 1.46
self-aminoacylation (biotinyl-Phe-oxazolone): 6.79
self-aminoacylation (biotinyl-Leu-oxazolone): 1.84
self-aminoacylation (biotinyl-Trp-oxazolone): 2.37
self-aminoacylation (biotinyl-Val-oxazolone): 2.17

AAGUUUGAUAAUAGUCUCAAG [Fam3.1 aminoacylation ribozyme variant]
self-aminoacylation (biotinyl-Met-oxazolone): 0.731
self-aminoacylation (biotinyl-Ile-oxazolone): 0.737
self-aminoacylation (biotinyl-Phe-oxazolone): 1.46
self-aminoacylation (biotinyl-Leu-oxazolone): 0.638
self-aminoacylation (biotinyl-Trp-oxazolone): 0.754
self-aminoacylation (biotinyl-Val-oxazolone): 0.703

AUUCACCGAGGUAAUCGGGUG [Fam2.2 aminoacylation ribozyme variant]
self-aminoacylation (biotinyl-Met-oxazolone): 8.27
self-aminoacylation (biotinyl-Ile-oxazolone): 4.23
self-aminoacylation (biotinyl-Phe-oxazolone): 60.4
self-aminoacylation (biotinyl-Leu-oxazolone): 11.5
self-aminoacylation (biotinyl-Trp-oxazolone): 8.26
self-aminoacylation (biotinyl-Val-oxazolone): 5.13

CGACUUCAUACAAUCGGUCUG [Fam1A.1 aminoacylation ribozyme variant]
self-aminoacylation (biotinyl-Met-oxazolone): 0.796
self-aminoacylation (biotinyl-Ile-oxazolone): 0.939
self-aminoacylation (biotinyl-Phe-oxazolone): 1.01
self-aminoacylation (biotinyl-Leu-oxazolone): 0.738
self-aminoacylation (biotinyl-Trp-oxazolone): 0.879
self-aminoacylation (biotinyl-Val-oxazolone): 0.904

CCACACUUCAAGCUAUGGGUC [Fam1B.1 aminoacylation ribozyme variant]
self-aminoacylation (biotinyl-Met-oxazolone): 0.875
self-aminoacylation (biotinyl-Ile-oxazolone): 0.966
self-aminoacylation (biotinyl-Phe-oxazolone): 0.774
self-aminoacylation (biotinyl-Leu-oxazolone): 0.763
self-aminoacylation (biotinyl-Trp-oxazolone): 0.724
self-aminoacylation (biotinyl-Val-oxazolone): 0.911

ACUACCCUGGUCAUUGAGUGA [Fam2.1 aminoacylation ribozyme variant]
self-aminoacylation (biotinyl-Met-oxazolone): 7.75
self-aminoacylation (biotinyl-Ile-oxazolone): 4.12
self-aminoacylation (biotinyl-Phe-oxazolone): 34
self-aminoacylation (biotinyl-Leu-oxazolone): 8.8
self-aminoacylation (biotinyl-Trp-oxazolone): 8.89
self-aminoacylation (biotinyl-Val-oxazolone): 4.05

AUUAACCUAGGUCAUCGGGGG [Fam2.2 aminoacylation ribozyme variant]
self-aminoacylation (biotinyl-Met-oxazolone): 3.77
self-aminoacylation (biotinyl-Ile-oxazolone): 2.68
self-aminoacylation (biotinyl-Phe-oxazolone): 3.87
self-aminoacylation (biotinyl-Leu-oxazolone): 3.88
self-aminoacylation (biotinyl-Trp-oxazolone): 2.88
self-aminoacylation (biotinyl-Val-oxazolone): 2.1

AUUCACCUAGGUCACCGUGUG [Fam2.2 aminoacylation ribozyme variant]
self-aminoacylation (biotinyl-Met-oxazolone): 1.33
self-aminoacylation (biotinyl-Ile-oxazolone): 1.13
self-aminoacylation (biotinyl-Phe-oxazolone): 4.55
self-aminoacylation (biotinyl-Leu-oxazolone): 1.48
self-aminoacylation (biotinyl-Trp-oxazolone): 1.24
self-aminoacylation (biotinyl-Val-oxazolone): 1.33

ACUCACCUAGUUCAUCGGGUG [Fam2.2 aminoacylation ribozyme variant]
self-aminoacylation (biotinyl-Met-oxazolone): 3.46
self-aminoacylation (biotinyl-Ile-oxazolone): 2.87
self-aminoacylation (biotinyl-Phe-oxazolone): 19.7
self-aminoacylation (biotinyl-Leu-oxazolone): 3.86
self-aminoacylation (biotinyl-Trp-oxazolone): 3.85
self-aminoacylation (biotinyl-Val-oxazolone): 3.36

AUUACCCUGGUGAUCGAGUCA [Fam2.1 aminoacylation ribozyme variant]
self-aminoacylation (biotinyl-Met-oxazolone): 0.978
self-aminoacylation (biotinyl-Ile-oxazolone): 0.912
self-aminoacylation (biotinyl-Phe-oxazolone): 0.521
self-aminoacylation (biotinyl-Leu-oxazolone): 0.741
self-aminoacylation (biotinyl-Trp-oxazolone): 0.415
self-aminoacylation (biotinyl-Val-oxazolone): 0.859

AUUACCCCGGUCAUCGAGUGG [Fam2.1 aminoacylation ribozyme variant]
self-aminoacylation (biotinyl-Met-oxazolone): 1.25
self-aminoacylation (biotinyl-Ile-oxazolone): 0.919
self-aminoacylation (biotinyl-Phe-oxazolone): 4.86
self-aminoacylation (biotinyl-Leu-oxazolone): 2.42
self-aminoacylation (biotinyl-Trp-oxazolone): 0.999
self-aminoacylation (biotinyl-Val-oxazolone): 1.13

CUACAUCAAACAAUCGGCCUG [Fam1A.1 aminoacylation ribozyme variant]
self-aminoacylation (biotinyl-Met-oxazolone): 1.35
self-aminoacylation (biotinyl-Ile-oxazolone): 1.25
self-aminoacylation (biotinyl-Phe-oxazolone): 2.89
self-aminoacylation (biotinyl-Leu-oxazolone): 1.41
self-aminoacylation (biotinyl-Trp-oxazolone): 2.21
self-aminoacylation (biotinyl-Val-oxazolone): 1.25

AUUACCCUCGUCAUCGAGUGA [Fam2.1 aminoacylation ribozyme variant]
self-aminoacylation (biotinyl-Met-oxazolone): 2.98
self-aminoacylation (biotinyl-Ile-oxazolone): 2.08
self-aminoacylation (biotinyl-Phe-oxazolone): 8.82
self-aminoacylation (biotinyl-Leu-oxazolone): 3.09
self-aminoacylation (biotinyl-Trp-oxazolone): 3.22
self-aminoacylation (biotinyl-Val-oxazolone): 2.07

CCACACUCCAAGCAGUCGGUC [Fam1B.1 aminoacylation ribozyme variant]
self-aminoacylation (biotinyl-Met-oxazolone): 1.04
self-aminoacylation (biotinyl-Ile-oxazolone): 1.32
self-aminoacylation (biotinyl-Phe-oxazolone): 0.733
self-aminoacylation (biotinyl-Leu-oxazolone): 1.11
self-aminoacylation (biotinyl-Trp-oxazolone): 1.04
self-aminoacylation (biotinyl-Val-oxazolone): 1.49

AAUUCCCUGGUCAUCGAGUGA [Fam2.1 aminoacylation ribozyme variant]
self-aminoacylation (biotinyl-Met-oxazolone): 10.1
self-aminoacylation (biotinyl-Ile-oxazolone): 5.6
self-aminoacylation (biotinyl-Phe-oxazolone): 41.5
self-aminoacylation (biotinyl-Leu-oxazolone): 10.8
self-aminoacylation (biotinyl-Trp-oxazolone): 13
self-aminoacylation (biotinyl-Val-oxazolone): 6.09

AAGUUUGCGUAUAGUCGCAAG [Fam3.1 aminoacylation ribozyme variant]
self-aminoacylation (biotinyl-Met-oxazolone): 1.21
self-aminoacylation (biotinyl-Ile-oxazolone): 0.888
self-aminoacylation (biotinyl-Phe-oxazolone): 1.22
self-aminoacylation (biotinyl-Leu-oxazolone): 0.753
self-aminoacylation (biotinyl-Trp-oxazolone): 1.23
self-aminoacylation (biotinyl-Val-oxazolone): 0.996

AAAAUUGCUAAUAGUCGCAAG [Fam3.1 aminoacylation ribozyme variant]
self-aminoacylation (biotinyl-Met-oxazolone): 1.33
self-aminoacylation (biotinyl-Ile-oxazolone): 1.93
self-aminoacylation (biotinyl-Phe-oxazolone): 2.58
self-aminoacylation (biotinyl-Leu-oxazolone): 1.78
self-aminoacylation (biotinyl-Trp-oxazolone): 3.04
self-aminoacylation (biotinyl-Val-oxazolone): 1.73

AUUAACCUGGUCAUCGCGUGA [Fam2.1 aminoacylation ribozyme variant]
self-aminoacylation (biotinyl-Met-oxazolone): 17.2
self-aminoacylation (biotinyl-Ile-oxazolone): 8.07
self-aminoacylation (biotinyl-Phe-oxazolone): 126
self-aminoacylation (biotinyl-Leu-oxazolone): 19.1
self-aminoacylation (biotinyl-Trp-oxazolone): 21.5
self-aminoacylation (biotinyl-Val-oxazolone): 7.74

AUUCACCUAGGUCUUCGCGUG [Fam2.2 aminoacylation ribozyme variant]
self-aminoacylation (biotinyl-Met-oxazolone): 4.3
self-aminoacylation (biotinyl-Ile-oxazolone): 2.95
self-aminoacylation (biotinyl-Phe-oxazolone): 16.6
self-aminoacylation (biotinyl-Leu-oxazolone): 4.5
self-aminoacylation (biotinyl-Trp-oxazolone): 3.32
self-aminoacylation (biotinyl-Val-oxazolone): 3.96
